Laboratory results: patent US20250388666A1 (BRIGHAM AND WOMEN S HOSPITAL, published 2025)
Residue numbers refer to the chain shown, from its start. Numbers in names are those of the source. Where two headings read alike, the source gives them in different places. One block for each binder: values may come before it.

Experiments:
[1] = biological target: T1, CEACAM1 (Sino Biological) (human, UniProt P13688 35-428, limits assumed); assay: SPR single-cycle
T1 construct: may be the same as CEACAM1-HIS; also called hCEACAM1; biotinylated soluble CEACAM1
T1 sequence: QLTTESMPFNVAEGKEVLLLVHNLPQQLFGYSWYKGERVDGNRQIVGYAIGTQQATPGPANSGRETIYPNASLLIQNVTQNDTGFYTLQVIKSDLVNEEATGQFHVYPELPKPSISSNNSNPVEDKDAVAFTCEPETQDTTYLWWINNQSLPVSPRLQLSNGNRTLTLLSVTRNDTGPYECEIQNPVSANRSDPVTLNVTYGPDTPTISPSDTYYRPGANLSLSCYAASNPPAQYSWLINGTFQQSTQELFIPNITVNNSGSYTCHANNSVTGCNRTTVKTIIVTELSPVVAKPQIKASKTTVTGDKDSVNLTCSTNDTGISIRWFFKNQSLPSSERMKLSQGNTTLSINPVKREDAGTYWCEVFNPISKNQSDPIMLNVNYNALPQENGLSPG
Outline: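 Humanized affinity-matured IgGs from crude supernatants captured on Protein A to ~100 RU, with CEACAM1 analyte injected at 25–100 nM (three-point, two-fold) in HBS-P+ without regeneration. 200 s association per injection, 300 s single dissociation; reference-channel and blank subtracted.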

[2] = biological target: T2, CEACAM3 (Sino Biological) (human, UniProt P40198 35-155, limits assumed); assay: binding ELISA on plate-coated CEACAM (0.5 µg/mL); antibody at 1.67, 0.062 and 0.0069 µg/mL; signal as % of parent IgG on CEACAM1 at 1.67 µg/mL on the same plate
T2 construct: also called hCEACAM3
T2 sequence (looked up): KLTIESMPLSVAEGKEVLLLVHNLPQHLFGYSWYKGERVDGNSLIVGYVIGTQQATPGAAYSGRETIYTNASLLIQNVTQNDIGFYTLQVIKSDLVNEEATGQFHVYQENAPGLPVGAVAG

[3] = biological target: T3, CEACAM6 (Sino Biological) (human, UniProt P40199 35-320); assay: as above
T3 construct: also called hCEACAM6
T3 sequence (looked up): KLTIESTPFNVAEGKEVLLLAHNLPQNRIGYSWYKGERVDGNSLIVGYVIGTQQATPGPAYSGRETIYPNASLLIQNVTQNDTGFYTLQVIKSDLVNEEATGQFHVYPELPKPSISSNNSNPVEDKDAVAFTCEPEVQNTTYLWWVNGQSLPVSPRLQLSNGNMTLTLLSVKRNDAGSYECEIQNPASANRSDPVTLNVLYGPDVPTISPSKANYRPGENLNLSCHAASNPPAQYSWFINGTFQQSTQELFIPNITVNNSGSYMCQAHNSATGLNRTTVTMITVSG

[4] = biological target: T1, CEACAM1 (Sino Biological); assay: SPR multi-cycle, IgG on Protein A
Description: Multi-cycle kinetics analysis was performed on the twelve lead antibodies using a Biacore T200 instrument running Biacore T200 Evaluation Software V3.0.1 (Uppsala, Sweden) to establish an accurate affinity for CEACAM1. The purified antibodies were diluted to a concentration of […] in HBS-P+. At the start of each cycle, each antibody was captured on the Protein A surface to give an RL of ˜100 RU. Following capture, the surface was allowed to stabilize. Kinetic data was obtained using a flow rate of […] to minimize any potential mass transfer effects. For the kinetics analysis, CEACAM1 was used. Multiple repeats of the blank ([…]) and a repeat of a single concentration of the analyte were programmed into the kinetic run in order to check the stability of both the surface and analyte over the kinetic cycles. For kinetic analysis, a two-fold dilution range was selected from 200 to 3.125 nM CEACAM1. The association phase of CEACAM1 was monitored for 275 seconds and the dissociation phase was measured for 250 seconds. Regeneration of the Protein A surface was conducted using two injections of 10 mM glycine-HCL pH 1.5 at the end of each cycle.
The signal from the reference channel Fc1 was subtracted from that of Fc2, Fc3 and Fc4 to correct for differences in non-specific binding to a reference surface, and a global Rmax parameter was used in the 1-to-1 binding model. The relative KD was calculated by dividing the KD of the RSB02 Parent by that of the humanized and affinity matured variants on the same chip.

[5] = biological target: T2, CEACAM3 (Sino Biological); assay: binding ELISA on plate-coated CEACAM (0.5 µg/mL); antibody at 1.67, 0.062 and 0.0069 µg/mL; signal as % of parent IgG on CEACAM1 at 1.67 µg/mL on the same plate; remark: listed apart in the source
[6] = biological target: T3, CEACAM6 (Sino Biological); assay: as above; remark: listed apart in the source
human GST-CEACAM1 = biological target: T4, human GST-CEACAM1 (human, UniProt P13688 35-141, limits assumed); assay: competition ELISA vs murine parent antibody
T4 construct: printed both as GST-CEACAM1 and CEACAM1-GST; also called human CEACAM1-GST protein; hCEACAM1-GST; not shown: GST tag
T4 sequence: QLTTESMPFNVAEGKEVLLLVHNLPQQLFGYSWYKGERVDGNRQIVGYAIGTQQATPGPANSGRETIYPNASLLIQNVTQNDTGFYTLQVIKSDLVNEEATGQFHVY
Description: The binding of the purified chimeric antibody to human CEACAM1 was assessed in a competition ELISA assay. Nunc Immuno MaxiSorp 96 well flat bottom microtitre plates were pre-coated with 1 μg/ml human GST-CEACAM1 in 1×PBS, overnight at 4° C. The following day the plates were blocked for 1 hour at room temperature with 2% BSA/PBS before washing 2× with PBS/0.05% Tween 20 pH 7.4.
The binding of the purified antibodies to human CEACAM1 were assessed in a competition ELISA assay as described above. The ability of each variant to compete against the murine parental antibody for binding to the GST-CEACAM1 was compared to that of the chimeric antibody (VH0/Vκ0), which was included on each plate.

[7] = biological target: T5, CEACAM1 on transfected HeLa cells (Homo sapiens (Human), UniProt P13688 35-526); assay: flow cytometry, transfected HeLa
T5 construct: also called C1
T5 sequence: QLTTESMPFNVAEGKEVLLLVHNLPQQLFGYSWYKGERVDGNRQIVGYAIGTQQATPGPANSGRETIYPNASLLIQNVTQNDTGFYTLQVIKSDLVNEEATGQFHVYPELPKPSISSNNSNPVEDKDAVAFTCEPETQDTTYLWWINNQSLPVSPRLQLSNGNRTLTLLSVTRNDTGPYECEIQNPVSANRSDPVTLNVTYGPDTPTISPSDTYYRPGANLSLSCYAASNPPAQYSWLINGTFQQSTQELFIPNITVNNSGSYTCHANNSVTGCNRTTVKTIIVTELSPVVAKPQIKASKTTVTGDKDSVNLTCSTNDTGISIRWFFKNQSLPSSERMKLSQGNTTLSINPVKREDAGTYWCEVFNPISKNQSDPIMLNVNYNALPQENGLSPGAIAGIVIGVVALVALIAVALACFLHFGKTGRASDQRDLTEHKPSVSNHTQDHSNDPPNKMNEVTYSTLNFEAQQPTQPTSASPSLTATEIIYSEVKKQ
Description: (§1) Binding selectivity of the selected antibody variants was assessed by flow cytometry using HeLa cells transfected with vectors expressing CEACAM1, CEACAM5, and CEACAM6, respectively. The resulting cells were used for flow cytometry experiments and were cultured at 37° C., 5.0% CO₂ in Dulbecco's modified Eagle's medium supplemented with 10% fetal bovine serum, penicillin (100 U/ml) and dihydrostreptomycin ([…]). Cell lines were stained with the indicated antibodies followed by fluorochrome-conjugated monoclonal antibody specific for the indicated antibody isotypes such as human IgG4 or mouse IgG1 together with viable dye (DAPI). Data were acquired with a Cytoflex flow cytometer ([…]) and analyzed with FlowJo software (TreeStar, V7.6.5 for Windows).

[8] = biological target: T6, CEACAM6 on transfected HeLa cells (UniProt P40199 35-320, limits assumed); assay: flow cytometry, transfected HeLa
T6 construct: whole, on cells; also called C6
T6 sequence (looked up): T3 sequence (looked up)
Description: as §1

[9] = biological target: T7, CEACAM1-HIS (Sino Biologics Inc.) (Homo sapiens (Human), UniProt P13688 35-428); assay: SPR single-cycle, IgG on Protein A
T7 construct: bought; not shown: His tag
T7 sequence: T1 sequence
Description: As an alternative approach to assess the binding of the antibody combinations and the control antibodies to CEACAM1, a kinetic analysis was performed on a Biacore T200 running Biacore T200 Evaluation Software V2.0.1. All experiments were run at 25° C. with HBS-P+ running buffer (pH 7.4).
In order to assess the binding of all Composite Human Antibody™ variants, single cycle kinetic analysis was performed on the supernatants of all the transiently transfected HEK EBNA cells. Purified chimeric antibody and purified chimeric antibody spiked into HEK EBNA media were used as positive controls. Supernatants were diluted in HBS-P+ to a concentration of 1 μg/mL (as determined by an IgG quantitation ELISA). At the start of each cycle, antibodies were loaded onto Fc2, Fc3 and Fc4 of a Protein A chip and captured at a flow rate of 8 μL/min to give an RU of ˜100. The surface was then allowed to stabilize. Single cycle kinetic data was obtained at a flow rate of […] to minimize any potential mass transfer effects. Multiple repeats of the chimeric antibody were performed to check the stability of the surface and analyte over the kinetic cycles. The signal from the reference channel Fc1 (no antibody) was subtracted from that of Fc2, Fc3 and Fc4 to correct for differences in non-specific binding to a reference surface. A 5 point 2-fold dilution range from 3.125 to 50 nM CEACAM1 without regeneration between each concentration was used. The association phase for the 5 injections of increasing concentrations of CEACAM1 was monitored for 150 seconds and a single dissociation phase was measured for 150 seconds following the last injection of CEACAM1. Regeneration of the Protein A was conducted using 2 injections of 10 mM glycine-HCL pH 1.5 followed by a stabilization period of 500 seconds.
In the raw sensorgrams for the single cycle kinetics, the signal from each antibody blank run (no CEACAM1) was subtracted to correct for differences in surface stability.

B2: He4/L16 (antibody, IgG4, V domains shown)
VH: EVQLLESGGGLVQPGGSLRLSCAASGFSFSDYYLYWVRQAPGKGLEWVATISVGGGQTSYADSVKGRFTISRDNSKNTLYLQMNSLRAEDTAMYYCTRALYYGPAWFAYWGQGTLVTVSS
VL: DIVMTQSPDSLAVSLGERATINCKSSQSLLNSANQKNYLAWYQQKPGQPPKLLIYFASTRESGVPDRFSGSGSGTDFTLTISSLQAEDVAVYYCQSHYPYPFTFGGGTKVEIK
notes: IgG4 S241P, kappa; also called He4 / 16
Kd [1]: 52 nM | fold better than Parent (KD) [1]: 3.04 fold | binding result [2]: no binding (tested: 1.67 µg/mL) | Kd [4]: 38.9 nM | koff [4]: 0.00146 s⁻¹ | kon [4]: 37500 M⁻¹ s⁻¹ | relative KD to Parent [4]: 3.16 ratio

B3: He14/L1 (antibody, IgG4, V domains shown)
VH: B2 VH with A99G, A105S, F107V
VL: B2 VL with Y100F, P101Y, F102Y
notes: IgG4 S241P, kappa; also called He14 / 1
Kd [1]: 69 nM | fold better than Parent (KD) [1]: 2.3 fold | Kd [4]: 67.3 nM | koff [4]: 0.00724 s⁻¹ | kon [4]: 108000 M⁻¹ s⁻¹ | relative KD to Parent [4]: 1.83 ratio | binding result [5]: no binding (tested: 1.67 µg/mL) | binding result [6]: no binding (tested: 1.67 µg/mL)

Continued, values first:

Kd [1]: 67 nM | fold better than Parent (KD) [1]: 2.36 fold | binding result [2]: no binding (tested: 1.67 µg/mL) | binding result [3]: no binding (tested: 1.67 µg/mL) | Kd [4]: 25.8 nM | koff [4]: 0.00795 s⁻¹ | kon [4]: 308000 M⁻¹ s⁻¹ | relative KD to Parent [4]: 3.31 ratio
B1: He17/L16 (antibody, IgG4, V domains shown)
VH: B2 VH with L100R, Y101T
VL: B2 VL
notes: IgG4 S241P, kappa; also called 17 / 16

average relative IC50 (normalized to chimeric antibody) (human GST-CEACAM1): 4.4 ratio | relative fluorescence intensity [7]: 81.1 | relative fluorescence intensity [8]: 1.19 | Kd [9]: 143 nM | relative KD to chimeric parental antibody [9]: 3.3 ratio
B4: VH1/Vκ4 (antibody, IgG4, V domains shown)
VH: B2 VH with Q57N, A61P, A99G
VL: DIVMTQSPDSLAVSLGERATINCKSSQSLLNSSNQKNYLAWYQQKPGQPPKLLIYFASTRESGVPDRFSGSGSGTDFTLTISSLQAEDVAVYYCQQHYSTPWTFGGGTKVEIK
notes: IgG4 (S241P), kappa; also called VH1/VK4
